Source: US5621089

Target: casein

“PD498 alkaline protease (protease purified from Bacillus sp. PD498, NCIMB No. 40484) (enzyme)” was tested, and the proteolytic activity (Casein Protease Units, CPU) was 120 CPU/l.
